Measurements taken from patent US20210246223A1 (CRD PHARMACEUTICALS, published 2021).

Experiments:
EGFR = target: T1, EGFR (UniProt P00533 25-645, limits assumed); assay: ELISA, plate coated with 1 µg/ml EGFR, increasing concentration of 29Z6
T1 construct: Coated on the ELISA plate at 1 µg/ml and also used in the western blot; also called HER1; ErbB1
Experimental: (§1) ELISA plate was coated with 1 μg/ml of EGFR, HER2, or extracellular domain of HER3. The ELISA was incubated with increasing concentration of 29Z6 followed by incubation with HRP-goat-anti mouse IgG to detect 29Z6 antibody binding. […] Confirmation of the binding specificity was undertaken using western blotting. Only HER3 was bound to 29Z6 while EGFR or HER2 didn't (FIG. 10).

HER2 = target: T2, HER2 (UniProt P04626 23-652, limits assumed); assay: ELISA, plate coated with 1 µg/ml HER2, increasing concentration of 29Z6
T2 construct: Coated on the ELISA plate at 1 µg/ml and also used in the western blot; also called ErbB2; Neu
Experimental: as §1

[1] = target: T3, HER3-Fc fusion comprising the extracellular domain (aa 20-643) of human HER3 (human, UniProt P21860 20-643); assay: ELISA, HER3-Fc coated at 1 µg/ml, serial dilution of IgG 29Z6, anti-mouse Fc-HRP detection
T3 construct: range 20-643; also called human HER3-Fc fusion protein
Experimental: Antigen binding of IgG 29Z6 was analyzed in ELISA using immobilized HER3-Fc fusion comprising the extracellular domain (aa 20-643) of human HER3. The HER3-Fc fusion protein was coated onto polystyrene microtiter plates at 1 μg/ml in PBS. Remaining binding sites were blocked with PBS, 2% skimmed milk (MPBS). Plates were then incubated with a serial dilution of IgG 29Z6 in MPBS. After washing, bound antibody was detected with an HRP-conjugated anti-mouse Fc antibody and TMB, H₂O₂ as substrate.

[2] = target: T4, extracellular domain of HER3 (human, UniProt P21860 20-643); assay: SPR (Biacore 3000), HER3 extracellular domain amine-coupled on CM5, 29Z6 mAb as analyte, 1:1 model, 25° C.
T4 construct: extracellular domain; also called purified extracellular domain of HER3; HER3 receptor ectodomain
Experimental: (§2) The binding kinetics of the 29Z6 mAb was analysed by surface plasmon resonance (SPR) using a Biacore3000 optical sensor platform equipped with research-grade CM5 sensor (GE Healthcare Bio-Sciences Corp., Piscataway, N.J.). Purified extracellular domain of HER3 was immobilized on the sensor chip surface of a carboxylated dextran-coated gold film using the standard amine coupling kit following the manufacturer's protocol. Briefly, 70 μL of a mixed solution of NHS/EDC (1:1, v/v) was injected to activate the carboxylated dextran, followed by manual injection of protein in 10 mM NaOAc (pH 4.5) until the desired surface density was reached. Ethanolamine 1 M in water (pH 8.5) was then injected to de-activate residual NHS-esters on the sensor chip. […] Kinetic data were evaluated by globally fitting the sensorgrams to a simple 1:1 interaction model using the Biacore software BiaEvaluation version 4.1 (GE Healthcare Bio-Sciences Corp.). The equilibrium KDs were determined from the resulting kinetic association and dissociation rates (kd/ka), and a minimum of nine independent runs were used to generate the reported standard deviations. A 1:1 binding model was used together with experimentally determined RMax as fixed parameter to determine association rate constant (ka), dissociation rate constant (kd), and equilibrium dissociation constant (KD). […]

[3] = target: T4, extracellular domain of HER3; assay: SPR (Biacore 3000), HER3 extracellular domain amine-coupled on CM5, 29Z6 mAb 0.1-300 nM as analyte, 1:1 model, 25° C.
Experimental: as §2

T4 sequence (P21860 20-643): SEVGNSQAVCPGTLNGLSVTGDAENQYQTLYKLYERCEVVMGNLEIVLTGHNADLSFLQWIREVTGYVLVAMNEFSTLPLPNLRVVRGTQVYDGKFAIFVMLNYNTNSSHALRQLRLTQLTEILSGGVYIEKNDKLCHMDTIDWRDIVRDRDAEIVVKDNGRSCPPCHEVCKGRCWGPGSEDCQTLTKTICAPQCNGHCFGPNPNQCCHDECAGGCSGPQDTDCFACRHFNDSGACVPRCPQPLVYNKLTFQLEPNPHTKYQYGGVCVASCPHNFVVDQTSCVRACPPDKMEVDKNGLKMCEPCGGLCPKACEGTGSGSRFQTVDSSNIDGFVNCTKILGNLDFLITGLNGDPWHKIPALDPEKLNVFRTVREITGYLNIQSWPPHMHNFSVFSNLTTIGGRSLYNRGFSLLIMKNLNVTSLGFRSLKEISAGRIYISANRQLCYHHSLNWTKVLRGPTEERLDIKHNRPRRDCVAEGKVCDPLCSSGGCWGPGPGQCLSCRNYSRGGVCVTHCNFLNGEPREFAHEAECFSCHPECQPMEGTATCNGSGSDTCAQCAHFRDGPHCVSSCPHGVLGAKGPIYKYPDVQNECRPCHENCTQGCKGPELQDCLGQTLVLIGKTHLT
T3 sequence (P21860 20-643 limits assumed): as the sequence (P21860 20-643) above

B1: anti-HER3 monoclonal antibody 29Z6 (antibody, mouse IgG2a, kappa, V domains shown)
VH: EVQLQESGPSLVKPSQTLSLTCYVTGDSITSGYWNWIRKFPGNKLEYMGYINYSGSTYYNPSLKSRISIIRDTSQNHYNLLLNSVTTEDTATYYCARLGTYYRYAGAMDYWGQGTSVTVSS
VL: DDVLTQTPLSLPVSLGDQASISCRSSQSLVHSNGNTYLHWYLQKPGQSPKLLIYKVSNRFSGVPDRFSGSGSGTDFTLKISRVEAEDLGVYFCSQSTHVPYTFGGGTKLEIKR
notes: also called IgG 29Z6; 29Z6 mAb
Question: Which results are given for B1?
Answer: binding result (EGFR): no binding; binding result (HER2): no binding; EC50 [1]: 0.88 nM; koff [2]: 0.000295 s⁻¹; kon [2]: 188000 M⁻¹ s⁻¹; Kd [3]: 0.8 nM
